The assay has as its target T1, NG2 (nerve/glial antigen 2) proteoglycan (human (endogenous in HuAoSMC and G361), UniProt Q6UVK1 30-2322).
T1 construct: NG2 proteoglycan (CSPG4), transmembrane surface proteoglycan, endogenous on human cells; also called high-molecular melanoma associated antigen; CSPG4; source: endogenous, on human aortic smooth muscle cells (HuAoSMC) and G361-melanoma cells
The assay is described as follows: radioligand binding; increasing concentrations of 123I-tTF-TAA on cultivated HuAoSMC, gamma counter; nonlinear fit of total binding (GraphPad Prism 6: one site - total binding), an approximation. As to conditions: one partner purified.

In PMC4872748, “NG2 proteoglycan as a pericyte target for anticancer therapy by tumor vessel infarction with retargeted tissue factor” (Oncotarget, 2016) one finds Kd data, which are given here for one molecule.

T1 sequence (Q6UVK1 30-2322): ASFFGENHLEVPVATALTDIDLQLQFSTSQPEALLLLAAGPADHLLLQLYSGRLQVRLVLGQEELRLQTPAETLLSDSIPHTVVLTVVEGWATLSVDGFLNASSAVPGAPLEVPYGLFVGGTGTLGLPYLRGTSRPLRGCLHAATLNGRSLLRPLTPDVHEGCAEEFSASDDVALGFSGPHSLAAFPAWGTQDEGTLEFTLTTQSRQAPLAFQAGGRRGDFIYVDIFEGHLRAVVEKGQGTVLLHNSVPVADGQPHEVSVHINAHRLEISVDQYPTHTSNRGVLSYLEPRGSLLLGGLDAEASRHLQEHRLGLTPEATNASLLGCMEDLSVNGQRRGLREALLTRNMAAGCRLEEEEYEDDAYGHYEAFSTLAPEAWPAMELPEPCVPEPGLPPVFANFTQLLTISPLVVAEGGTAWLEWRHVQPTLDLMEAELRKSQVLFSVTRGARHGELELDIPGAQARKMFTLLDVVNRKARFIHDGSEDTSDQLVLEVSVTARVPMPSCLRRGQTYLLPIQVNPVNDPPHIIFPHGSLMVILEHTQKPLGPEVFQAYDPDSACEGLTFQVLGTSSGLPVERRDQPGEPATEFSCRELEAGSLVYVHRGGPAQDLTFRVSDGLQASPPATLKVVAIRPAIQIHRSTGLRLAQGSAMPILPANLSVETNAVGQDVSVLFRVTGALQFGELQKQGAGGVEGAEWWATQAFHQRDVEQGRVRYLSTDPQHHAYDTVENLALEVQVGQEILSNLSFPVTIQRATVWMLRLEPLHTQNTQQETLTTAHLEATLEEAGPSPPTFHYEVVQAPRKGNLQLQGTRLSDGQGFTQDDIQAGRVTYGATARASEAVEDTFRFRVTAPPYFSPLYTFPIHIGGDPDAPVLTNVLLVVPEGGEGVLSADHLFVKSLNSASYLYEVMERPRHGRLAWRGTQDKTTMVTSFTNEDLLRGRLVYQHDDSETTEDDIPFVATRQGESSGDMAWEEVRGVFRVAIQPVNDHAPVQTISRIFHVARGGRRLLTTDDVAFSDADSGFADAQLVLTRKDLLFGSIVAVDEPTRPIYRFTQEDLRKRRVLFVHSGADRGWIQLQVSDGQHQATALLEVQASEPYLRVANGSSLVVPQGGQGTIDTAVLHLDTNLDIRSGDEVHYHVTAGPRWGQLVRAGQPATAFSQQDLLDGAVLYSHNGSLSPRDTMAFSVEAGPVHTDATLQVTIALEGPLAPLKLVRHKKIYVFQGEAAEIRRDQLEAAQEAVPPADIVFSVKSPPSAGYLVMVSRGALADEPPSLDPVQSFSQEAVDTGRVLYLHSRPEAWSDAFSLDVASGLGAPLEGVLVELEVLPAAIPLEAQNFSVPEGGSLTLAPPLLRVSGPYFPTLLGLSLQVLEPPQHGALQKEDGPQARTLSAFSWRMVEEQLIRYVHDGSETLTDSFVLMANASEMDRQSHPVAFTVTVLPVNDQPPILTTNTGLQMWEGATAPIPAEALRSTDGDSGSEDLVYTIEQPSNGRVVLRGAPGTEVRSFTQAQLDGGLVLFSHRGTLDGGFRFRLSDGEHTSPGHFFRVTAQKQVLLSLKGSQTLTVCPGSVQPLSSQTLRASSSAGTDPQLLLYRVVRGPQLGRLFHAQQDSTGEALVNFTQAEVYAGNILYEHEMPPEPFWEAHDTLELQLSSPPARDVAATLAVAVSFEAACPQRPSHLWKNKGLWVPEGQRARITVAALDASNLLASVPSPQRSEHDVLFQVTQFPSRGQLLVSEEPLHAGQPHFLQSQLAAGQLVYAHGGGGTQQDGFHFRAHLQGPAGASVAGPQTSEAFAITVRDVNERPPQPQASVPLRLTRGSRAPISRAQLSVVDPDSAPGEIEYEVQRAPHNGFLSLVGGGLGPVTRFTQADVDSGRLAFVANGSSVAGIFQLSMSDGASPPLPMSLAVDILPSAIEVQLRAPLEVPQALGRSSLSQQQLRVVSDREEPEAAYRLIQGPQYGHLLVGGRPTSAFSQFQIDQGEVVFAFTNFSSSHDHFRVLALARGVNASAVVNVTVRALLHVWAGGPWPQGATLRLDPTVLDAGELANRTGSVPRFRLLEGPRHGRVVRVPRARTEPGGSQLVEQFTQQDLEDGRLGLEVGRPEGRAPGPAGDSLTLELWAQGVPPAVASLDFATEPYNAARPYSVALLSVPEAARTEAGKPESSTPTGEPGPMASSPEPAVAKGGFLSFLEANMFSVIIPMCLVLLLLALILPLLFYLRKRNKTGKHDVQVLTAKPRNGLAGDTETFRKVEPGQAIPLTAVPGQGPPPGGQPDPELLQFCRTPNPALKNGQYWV

B1: 123I-tTF218-TAA (other)
chain: SGTTNTVAAYNLTWKSTNFKTILEWEPKPVNQVYTVQISTKSGDWKSKCFYTTDTECDLTDEIVKDVKQTYLARVFSYPAGNVESTGSAGEPLYENSPEFTPYLETNLGQPTIQSFEQVGTKVNVTVEDERTLVRRNNTFLSLRDVFGKDLIYTLYYWKSSSSGKKTAKTNTNEFLIDVDKGENYCFSVQAVIPSRTVNRKSTDSPVECMGQEKGEFRTAASGVRSMH
modifications: 123I (iodinated; residues not stated)
Take B1: the equilibrium dissociation constant (Kd) is approximately 785 nM.

For orientation: Kd means the equilibrium constant for the complex coming apart. High values mean lower affinity, low ones higher affinity.
